Usually stoichiometry N stands for the number of molecules, sites or subunits per partner or assembly.

Experiment [1] addresses Tth RNAP β-subunit residues 10–133 (Tth RNAP-β1), two-hybrid fusion (Thermus thermophilus) (UniProt Q8RQE9). As to the kind of experiment: two-hybrid.
The target in experiment [2] is Eco RNAP β-subunit residues 19–142 (Eco RNAP-β1), two-hybrid fusion (Escherichia coli) (UniProt P0A8V2). As to the kind of experiment: two-hybrid.
Experiment [3] has as its target Thermus aquaticus RNAP β-subunit β1 domain (Taq β 17–139 –Gly–Gly– 334–395) (Thermus aquaticus) (UniProt Q9KWU7). As to the kind of experiment: crystal structure.
Experiment [4] deals with Tth RNAP-β1 Q99R (Tth RNAP β-subunit residues 10–133), two-hybrid fusion (Thermus thermophilus) (UniProt Q8RQE9). Briefly: two-hybrid.
Experiment [5] concerns the target T1, Tth RNAP-β1 Q99R (Tth RNAP β-subunit residues 10–133), two-hybrid fusion (Thermus thermophilus, UniProt Q8RQE9 10-133, Q99R).
T1 sequence (looked up): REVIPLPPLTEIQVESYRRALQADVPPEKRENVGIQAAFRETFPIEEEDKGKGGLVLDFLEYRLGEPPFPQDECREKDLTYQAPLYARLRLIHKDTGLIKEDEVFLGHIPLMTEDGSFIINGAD
Briefly: two-hybrid.

The target of experiment [6] is Eco RNAP β-subunit residues 19–142 (Eco RNAP-β1), two-hybrid fusion (Escherichia coli, UniProt P0A8V2 19-142). Briefly: two-hybrid.

The molecule “Tth TRCF–RID R341L (Tth TRCF residues 314–444), two-hybrid fusion (domain or fragment)” came in with a fold defect of the two-hybrid signal against wild-type Tth TRCF–RID in experiment [1] of 2 fold. Besides, the fold change of the two-hybrid signal against wild-type Tth TRCF–RID in experiment [2] came out at 2 fold. Molecule “Thermus thermophilus HB27 TRCF RNAP interacting domain (Tth TRCF–RID, residues 321–387) (domain or fragment)” came in with a stoichiometry N in experiment [3] of 1. As to “Tth TRCF residues 314–444 (Tth TRCF–RID), two-hybrid fusion (domain or fragment)”, the fold defect of the two-hybrid signal against wild-type Tth RNAP-β1 in experiment [4] came to 2 fold.

B1: Eco TRCF residues 472–603 (Eco TRCF–RID), two-hybrid fusion (domain or fragment, Escherichia coli, UniProt P30958 472-603, looked up)
chain: RNLAELHIGQPVVHLEHGVGRYAGMTTLEAGGITGEYLMLTYANDAKLYVPVSSLHLISRYAGGAEENAPLHKLGGDAWSRARQKAAEKVRDVAAELLDIYAQRAAKEGFAFKHDREQYQLFCDSFPFETTP
Take B1: the “fold change of the two-hybrid signal against wild-type Tth RNAP-β1” value in experiment [5] was around 2 fold.

B2: Eco TRCF–RID L499R (Eco TRCF residues 472–603), two-hybrid fusion (domain or fragment, Escherichia coli, UniProt P30958 472-603, looked up)
chain: RNLAELHIGQPVVHLEHGVGRYAGMTTREAGGITGEYLMLTYANDAKLYVPVSSLHLISRYAGGAEENAPLHKLGGDAWSRARQKAAEKVRDVAAELLDIYAQRAAKEGFAFKHDREQYQLFCDSFPFETTP
Regarding B2, the “fold defect of the two-hybrid signal against wild-type Eco TRCF–RID” value in experiment [6] was around 10 fold.

The record behind these values is publication PMC3001067 (Nucleic Acids Research, 2010).
